The results in this text go back to publication PMC7238552 (Cell, 2020).

Assay [1] deals with human integrin αvβ8 ectodomain (for structural studies) (Homo sapiens, UniProt P06756;P26012). Kind of assay: cryo-EM structure.
Assay [2] deals with recombinant integrin αvβ1 (R&D Systems) (Homo sapiens (assumed), UniProt P06756;P05556). Kind of assay: ELISA. A general note: In an ELISA, binding on a coated surface is turned into a signal by an enzyme label.
The target of assay [3] is recombinant integrin αvβ3 (R&D Systems) (Homo sapiens (assumed), UniProt P06756;P05106). In words: ELISA.
In assay [4] the target is recombinant integrin αvβ5 (R&D Systems) (Homo sapiens (assumed), UniProt P06756;P18084). Kind of assay: ELISA.
recombinant integrin αvβ5 (R&D Systems), sequence (P06756 31-1048, chain 1 of 2): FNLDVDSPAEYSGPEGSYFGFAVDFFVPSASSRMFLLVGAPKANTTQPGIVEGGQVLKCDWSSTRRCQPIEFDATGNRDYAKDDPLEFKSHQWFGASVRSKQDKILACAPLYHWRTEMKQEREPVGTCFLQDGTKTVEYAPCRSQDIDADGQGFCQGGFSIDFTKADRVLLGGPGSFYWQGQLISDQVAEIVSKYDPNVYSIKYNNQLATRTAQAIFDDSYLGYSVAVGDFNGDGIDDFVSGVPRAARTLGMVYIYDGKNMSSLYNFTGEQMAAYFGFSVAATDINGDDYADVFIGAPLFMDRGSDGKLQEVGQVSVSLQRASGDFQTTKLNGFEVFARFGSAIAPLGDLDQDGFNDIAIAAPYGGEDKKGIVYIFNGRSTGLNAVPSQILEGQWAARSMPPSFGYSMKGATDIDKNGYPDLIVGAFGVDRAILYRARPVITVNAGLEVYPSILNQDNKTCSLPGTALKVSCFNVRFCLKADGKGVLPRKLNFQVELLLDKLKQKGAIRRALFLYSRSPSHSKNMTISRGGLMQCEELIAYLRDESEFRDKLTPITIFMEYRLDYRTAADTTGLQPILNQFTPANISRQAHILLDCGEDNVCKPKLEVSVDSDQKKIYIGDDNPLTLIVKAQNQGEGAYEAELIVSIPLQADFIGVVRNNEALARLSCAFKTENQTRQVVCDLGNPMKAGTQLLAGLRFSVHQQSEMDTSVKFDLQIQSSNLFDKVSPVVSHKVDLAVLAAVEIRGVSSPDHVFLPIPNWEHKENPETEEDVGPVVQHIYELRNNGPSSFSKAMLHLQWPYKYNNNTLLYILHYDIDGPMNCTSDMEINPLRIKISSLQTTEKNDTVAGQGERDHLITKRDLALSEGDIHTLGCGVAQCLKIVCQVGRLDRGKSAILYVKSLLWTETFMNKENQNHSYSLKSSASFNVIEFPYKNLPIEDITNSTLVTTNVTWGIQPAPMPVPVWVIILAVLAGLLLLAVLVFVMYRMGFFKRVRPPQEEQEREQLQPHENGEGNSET
recombinant integrin αvβ5 (R&D Systems), sequence (P18084 24-719, chain 2 of 2): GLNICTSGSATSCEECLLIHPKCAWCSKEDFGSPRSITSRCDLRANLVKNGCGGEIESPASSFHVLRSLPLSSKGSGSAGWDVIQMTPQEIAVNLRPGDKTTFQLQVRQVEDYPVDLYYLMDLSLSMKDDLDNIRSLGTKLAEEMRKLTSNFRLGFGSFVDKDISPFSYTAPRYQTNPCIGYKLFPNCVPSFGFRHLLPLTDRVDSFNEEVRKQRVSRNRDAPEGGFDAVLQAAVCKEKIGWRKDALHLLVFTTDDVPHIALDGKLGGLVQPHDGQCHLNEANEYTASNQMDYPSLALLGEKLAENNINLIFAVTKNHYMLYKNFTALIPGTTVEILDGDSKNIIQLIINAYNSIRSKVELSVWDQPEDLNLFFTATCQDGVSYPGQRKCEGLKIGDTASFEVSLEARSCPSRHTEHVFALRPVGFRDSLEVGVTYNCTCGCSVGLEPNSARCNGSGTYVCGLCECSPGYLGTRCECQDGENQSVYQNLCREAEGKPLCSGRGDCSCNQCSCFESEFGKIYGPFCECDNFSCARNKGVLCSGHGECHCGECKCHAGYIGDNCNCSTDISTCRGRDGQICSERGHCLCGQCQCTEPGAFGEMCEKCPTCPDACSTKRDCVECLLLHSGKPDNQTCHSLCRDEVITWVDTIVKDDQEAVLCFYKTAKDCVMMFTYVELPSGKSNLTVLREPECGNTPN

recombinant integrin αvβ3 (R&D Systems), sequence (P06756 31-1048, chain 1 of 2): as the sequence (P06756 31-1048, chain 1 of 2) above
recombinant integrin αvβ3 (R&D Systems), sequence (P05106 27-718, chain 2 of 2): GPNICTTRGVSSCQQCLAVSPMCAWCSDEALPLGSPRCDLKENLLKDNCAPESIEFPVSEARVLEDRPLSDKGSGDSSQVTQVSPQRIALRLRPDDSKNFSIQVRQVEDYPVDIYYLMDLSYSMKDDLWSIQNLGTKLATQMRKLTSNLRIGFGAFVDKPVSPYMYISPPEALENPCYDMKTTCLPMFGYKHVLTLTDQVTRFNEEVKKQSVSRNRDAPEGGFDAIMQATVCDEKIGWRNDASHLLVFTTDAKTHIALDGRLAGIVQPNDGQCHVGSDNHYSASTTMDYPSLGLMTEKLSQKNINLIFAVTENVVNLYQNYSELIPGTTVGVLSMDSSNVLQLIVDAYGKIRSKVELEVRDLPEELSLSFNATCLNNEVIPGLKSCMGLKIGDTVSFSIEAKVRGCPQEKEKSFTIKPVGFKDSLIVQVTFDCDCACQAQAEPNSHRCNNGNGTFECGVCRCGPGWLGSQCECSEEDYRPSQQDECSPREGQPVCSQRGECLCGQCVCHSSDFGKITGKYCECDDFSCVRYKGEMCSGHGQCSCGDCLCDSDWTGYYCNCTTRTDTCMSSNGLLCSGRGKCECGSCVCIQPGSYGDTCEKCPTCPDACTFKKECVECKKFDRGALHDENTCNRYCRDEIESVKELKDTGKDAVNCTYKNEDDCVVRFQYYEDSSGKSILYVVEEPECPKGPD
recombinant integrin αvβ1 (R&D Systems), sequence (P06756 31-1048, chain 1 of 2): as the sequence (P06756 31-1048, chain 1 of 2) above
recombinant integrin αvβ1 (R&D Systems), sequence (P05556 21-728, chain 2 of 2): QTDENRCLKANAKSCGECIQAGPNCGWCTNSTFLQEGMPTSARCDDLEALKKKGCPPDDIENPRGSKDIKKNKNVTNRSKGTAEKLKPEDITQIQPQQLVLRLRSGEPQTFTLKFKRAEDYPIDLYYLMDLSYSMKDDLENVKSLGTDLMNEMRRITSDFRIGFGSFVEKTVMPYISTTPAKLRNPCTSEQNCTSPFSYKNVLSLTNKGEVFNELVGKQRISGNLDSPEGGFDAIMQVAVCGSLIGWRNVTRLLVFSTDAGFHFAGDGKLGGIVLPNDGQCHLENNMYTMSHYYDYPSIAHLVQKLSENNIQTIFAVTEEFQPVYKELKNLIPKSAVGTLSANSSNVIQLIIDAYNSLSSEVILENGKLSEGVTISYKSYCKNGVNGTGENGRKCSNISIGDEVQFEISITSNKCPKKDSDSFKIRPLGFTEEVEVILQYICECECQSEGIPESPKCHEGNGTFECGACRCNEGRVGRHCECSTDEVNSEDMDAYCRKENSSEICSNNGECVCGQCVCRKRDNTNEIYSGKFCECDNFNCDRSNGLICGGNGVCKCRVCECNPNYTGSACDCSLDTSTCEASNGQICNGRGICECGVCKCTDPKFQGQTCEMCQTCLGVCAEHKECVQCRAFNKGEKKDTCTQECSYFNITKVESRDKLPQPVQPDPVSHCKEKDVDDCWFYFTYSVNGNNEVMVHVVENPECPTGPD
human integrin αvβ8 ectodomain (for structural studies), sequence (P06756 31-992, chain 1 of 2): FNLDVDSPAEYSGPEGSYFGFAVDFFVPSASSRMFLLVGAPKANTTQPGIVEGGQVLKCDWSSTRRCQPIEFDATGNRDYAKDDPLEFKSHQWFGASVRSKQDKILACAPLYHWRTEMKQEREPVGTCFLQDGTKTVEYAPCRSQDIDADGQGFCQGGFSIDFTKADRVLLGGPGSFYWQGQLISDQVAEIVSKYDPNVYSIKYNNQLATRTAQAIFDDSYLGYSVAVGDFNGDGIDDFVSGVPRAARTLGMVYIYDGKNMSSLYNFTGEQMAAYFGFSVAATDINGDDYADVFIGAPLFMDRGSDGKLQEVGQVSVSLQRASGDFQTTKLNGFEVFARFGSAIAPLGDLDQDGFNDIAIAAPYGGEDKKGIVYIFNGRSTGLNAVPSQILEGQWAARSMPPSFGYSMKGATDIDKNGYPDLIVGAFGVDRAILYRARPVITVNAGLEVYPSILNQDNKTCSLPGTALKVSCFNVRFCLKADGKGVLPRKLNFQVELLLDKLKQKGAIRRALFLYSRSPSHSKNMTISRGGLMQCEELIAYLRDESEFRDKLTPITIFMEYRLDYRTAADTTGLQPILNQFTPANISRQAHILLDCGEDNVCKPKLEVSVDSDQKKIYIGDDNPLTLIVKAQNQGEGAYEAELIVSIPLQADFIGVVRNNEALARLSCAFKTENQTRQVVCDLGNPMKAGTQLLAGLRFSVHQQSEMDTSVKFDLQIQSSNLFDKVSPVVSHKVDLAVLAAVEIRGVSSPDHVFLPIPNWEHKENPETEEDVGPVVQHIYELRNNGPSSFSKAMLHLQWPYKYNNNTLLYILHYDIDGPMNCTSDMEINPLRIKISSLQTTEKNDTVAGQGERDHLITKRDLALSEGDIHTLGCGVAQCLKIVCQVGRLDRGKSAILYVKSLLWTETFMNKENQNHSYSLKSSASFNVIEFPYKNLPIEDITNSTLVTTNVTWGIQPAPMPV
human integrin αvβ8 ectodomain (for structural studies), sequence (P26012 43-684, chain 2 of 2): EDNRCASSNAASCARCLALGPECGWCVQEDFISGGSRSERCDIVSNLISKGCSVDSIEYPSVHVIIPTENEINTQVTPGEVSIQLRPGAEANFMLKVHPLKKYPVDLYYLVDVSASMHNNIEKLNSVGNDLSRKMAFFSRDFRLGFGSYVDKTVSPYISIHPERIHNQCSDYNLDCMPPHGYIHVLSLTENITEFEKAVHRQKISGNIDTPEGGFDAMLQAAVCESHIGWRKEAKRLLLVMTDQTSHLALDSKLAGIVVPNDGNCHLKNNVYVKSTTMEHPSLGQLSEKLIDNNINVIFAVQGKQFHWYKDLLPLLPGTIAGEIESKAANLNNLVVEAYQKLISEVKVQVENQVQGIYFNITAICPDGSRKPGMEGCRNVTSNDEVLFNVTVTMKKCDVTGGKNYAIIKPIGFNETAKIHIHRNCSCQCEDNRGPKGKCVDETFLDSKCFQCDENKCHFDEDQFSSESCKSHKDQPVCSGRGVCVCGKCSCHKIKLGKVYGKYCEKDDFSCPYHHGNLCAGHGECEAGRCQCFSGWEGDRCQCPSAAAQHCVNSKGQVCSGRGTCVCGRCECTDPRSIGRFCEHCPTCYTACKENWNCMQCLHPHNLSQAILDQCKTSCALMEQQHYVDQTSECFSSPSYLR

B1: C6-RGD3 Fab (Fab, V domains shown)
VH: QIQLVQSGPELKKPGETVKISCKASGYTFTDYSMHWVKQAPGKGLKWVARINTETGEPTFADDFRGRFAVSLETSASTAYLQINNLKNEDTATYFCAIFYYGRDSWGQGTTLTVSS
VL: DIVMTQSPSSLAVSAGEKVTMSCKSSQSLLGRGDLGRLKKNALAWYQQKPGQSPRLLIYWASTRESGVPDRFTGSGSGTDFTLTISSVQAEDLAVYYCKQSYNLLSFGAGTKLELK
In the case of B1, the binding result in assay [1] is “binds”.

B2: C6-RGD3 antibody (mouse IgG2a) (antibody, V domains shown)
VH: QIQLVQSGPELKKPGETVKISCKASGYTFTDYSMHWVKQAPGKGLKWVARINTETGEPTFADDFRGRFAVSLETSASTAYLQINNLKNEDTATYFCAIFYYGRDSWGQGTTLTVSS
VL: DIVMTQSPSSLAVSAGEKVTMSCKSSQSLLGRGDLGRLKKNALAWYQQKPGQSPRLLIYWASTRESGVPDRFTGSGSGTDFTLTISSVQAEDLAVYYCKQSYNLLSFGAGTKLELK
B2: the binding result in assay [2], in assay [3] and in assay [4] was “no binding” in each case.
